Results as given in paper PMC9904277 (2023).

Molecular target: MCL-1 (Homo sapiens, UniProt Q07820)
Test: competition fluorescence anisotropy

Sequence of MCL-1 (Q07820 whole entry): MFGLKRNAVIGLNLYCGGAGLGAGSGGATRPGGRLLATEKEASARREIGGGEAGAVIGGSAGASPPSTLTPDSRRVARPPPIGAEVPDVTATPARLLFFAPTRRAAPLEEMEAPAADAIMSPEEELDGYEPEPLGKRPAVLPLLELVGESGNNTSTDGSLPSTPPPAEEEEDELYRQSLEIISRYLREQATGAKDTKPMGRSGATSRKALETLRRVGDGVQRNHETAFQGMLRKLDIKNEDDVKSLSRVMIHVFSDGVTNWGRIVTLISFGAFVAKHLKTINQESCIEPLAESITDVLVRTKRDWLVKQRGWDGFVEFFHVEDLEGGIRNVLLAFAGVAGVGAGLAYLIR

Binder	IC50
NLWAAQRYGRELRRMSDEFVDSFKK [BAD-wt BH3]	> 50000 nM
SAAQLTAARLKALGDELHQRTMW [HRK-wt 28-50]	2700 nM
